Data on nine variants can be found in IntAct's records for PubMed 31515488.

The labels stand for the following.
B1: Meiotic recombination protein DMC1/LIM15 homolog (Homo sapiens), Q14565 (parent)
chain: MKEDQVVAEEPGFQDEEESLFQDIDLLQKHGINVADIKKLKSVGICTIKGIQMTTRRALCNVKGLSEAKVDKIKEAANKLIEPGFLTAFEYSEKRKMVFHITTGSQEFDKLLGGGIESMAITEAFGEFRTGKTQLSHTLCVTAQLPGAGGYPGGKIIFIDTENTFRPDRLRDIADRFNVDHDAVLDNVLYARAYTSEHQMELLDYVAAKFHEEAGIFKLLIIDSIMALFRVDFSGRGELAERQQKLAQMLSRLQKISEEYNVAVFVTNQMTADPGATMTFQADPKKPIGGHILAHASTTRISLRKGRGELRIAKIYDSPEMPENEATFAITAGGIGDAKE
B2: Nucleoporin p58/p45 (Homo sapiens), Q9BVL2 (parent)
chain: MSTGFSFGSGTLGSTTVAAGGTSTGGVFSFGTGASSNPSVGLNFGNLGSTSTPATTSAPSSGFGTGLFGSKPATGFTLGGTNTGIATTITTGLTLGTPATTSAATTGFSLGFNKPAASATPFALPITSTSASGLTLSSALTSTPAASTGFTLNNLGGTTATTTTASTGLSLGGALAGLGGSLFQSTNTGTSGLGQNALGLTLGTTAATSTAGNEGLGGIDFSSSSDKKSDKTGTRPEDSKALKDENLPPVICQDVENLQKFVKEQKQVQEEISRMSSKAMLKVQEDIKALKQLLSLAANGIQRNTLNIDKLKIETAQELKNAEIALRTQKTPPGLQHEYAAPADYFRILVQQFEVQLQQYRQQIEELENHLATQANNSHITPQDLSMAMQKIYQTFVALAAQLQSIHENVKVLKEQYLGYRKMFLGDAVDVFETRRAEAKKWQNTPRVTTGPTPFSTMPNAAAVAMAATLTQQQQPATGPQPSLGVSFGTPFGSGIGTGLQSSGLGSSNLGGFGTSSGFGCSTTGASTFGFGTTNKPSGSLSAGFGSSSTSGFNFSNPGITASAGLTFGVSNPASAGFGTGGQLLQLKKPPAGNKRGKR
B3: STAM-binding protein (Homo sapiens), O95630 (parent)
chain: MSDHGDVSLPPEDRVRALSQLGSAVEVNEDIPPRRYFRSGVEIIRMASIYSEEGNIEHAFILYNKYITLFIEKLPKHRDYKSAVIPEKKDTVKKLKEIAFPKAEELKAELLKRYTKEYTEYNEEKKKEAEELARNMAIQQELEKEKQRVAQQKQQQLEQEQFHAFEEMIRNQELEKERLKIVQEFGKVDPGLGGPLVPDLEKPSLDVFPTLTVSSIQPSDCHTTVRPAKPPVVDRSLKPGALSNSESIPTIDGLRHVVVPGRLCPQFLQLASANTARGVETCGILCGKLMRNEFTITHVLIPKQSAGSDYCNTENEEELFLIQDQQGLITLGWIHTHPTQTAFLSSVDLHTHCSYQMMLPESVAIVCSPKFQETGFFKLTDHGLEEISSCRQKGFHPHSKDPPLFCSCSHVTVVDRAVTITDLR
partner: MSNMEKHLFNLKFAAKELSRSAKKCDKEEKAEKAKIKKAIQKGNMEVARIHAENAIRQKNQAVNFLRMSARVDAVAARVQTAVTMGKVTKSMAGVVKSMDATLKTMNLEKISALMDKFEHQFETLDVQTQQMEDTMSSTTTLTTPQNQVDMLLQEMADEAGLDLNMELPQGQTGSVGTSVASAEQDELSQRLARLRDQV
B4: Zinc finger CCCH-type with G patch domain-containing protein (Homo sapiens), Q8N5A5 (parent)
chain: MDEESLESALQTYRAQLQQVELALGAGLDSSEQADLRQLQGDLKELIELTEASLVSVRKSSLLAALDEERPGRQEDAEYQAFREAITEAVEAPAAARGSGSETVPKAEAGPESAAGGQEEEEGEDEEELSGTKVSAPYYSSWGTLEYHNAMVVGTEEAEDGSAGVRVLYLYPTHKSLKPCPFFLEGKCRFKENCRFSHGQVVSLDELRPFQDPDLSSLQAGSACLAKHQDGLWHAARITDVDNGYYTVKFDSLLLREAVVEGDGILPPLRTEATESDSDSDGTGDSSYARVVGSDAVDSAQSSALCPSLAVVGSDAVDSGTCSSAFAGWEVHTRGIGSRLLTKMGYEFGKGLGRHAEGRVEPIHAVVLPRGKSLDQCVETLQKQTRVGKAGTNKPPRCRGRGARPGGRPAPRNVFDFLNEKLQGQAPGALEAGAAPAGRRSKDMYHASKSAKRALSLRLFQTEEKIERTQRDIRSIQEALARNAGRHSVASAQLQEKLAGAQRQLGQLRAQEAGLQQEQRKADTHKKMTEF
B5: Transcription initiation factor IIA subunit 1 (Homo sapiens), P52655 (parent)
chain: MANSANTNTVPKLYRSVIEDVINDVRDIFLDDGVDEQVLMELKTLWENKLMQSRAVDGFHSEEQQLLLQVQQQHQPQQQQHHHHHHHQQAQPQQTVPQQAQTQQVLIPASQQATAPQVIVPDSKLIQHMNASNMSAAATAATLALPAGVTPVQQILTNSGQLLQVVRAANGAQYIFQPQQSVVLQQQVIPQMQPGGVQAPVIQQVLAPLPGGISPQTGVIIQPQQILFTGNKTQVIPTTVAAPTPAQAQITATGQQQPQAQPAQTQAPLVLQVDGTGDTSSEEDEDEEEDYDDDEEEDKEKDGAEDGQVEEEPLNSEDDVSDEEGQELFDTENVVVCQYDKIHRSKNKWKFHLKDGIMNLNGRDYIFSKAIGDAEW
partner: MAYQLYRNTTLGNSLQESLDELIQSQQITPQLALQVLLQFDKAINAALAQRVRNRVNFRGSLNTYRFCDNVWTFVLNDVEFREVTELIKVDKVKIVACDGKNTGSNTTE
B6: N-chimaerin (Homo sapiens), P15882 (parent)
chain: MALTLFDTDEYRPPVWKSYLYQLQQEAPHPRRITCTCEVENRPKYYGREFHGMISREAADQLLIVAEGSYLIRESQRQPGTYTLALRFGSQTRNFRLYYDGKHFVGEKRFESIHDLVTDGLITLYIETKAAEYIAKMTINPIYEHVGYTTLNREPAYKKHMPVLKETHDERDSTGQDGVSEKRLTSLVRRATLKENEQIPKYEKIHNFKVHTFRGPHWCEYCANFMWGLIAQGVKCADCGLNVHKQCSKMVPNDCKPDLKHVKKVYSCDLTTLVKAHTTKRPMVVDMCIREIESRGLNSEGLYRVSGFSDLIEDVKMAFDRDGEKADISVNMYEDINIITGALKLYFRDLPIPLITYDAYPKFIESAKIMDPDEQLETLHEALKLLPPAHCETLRYLMAHLKRVTLHEKENLMNAENLGIVFGPTLMRSPELDAMAALNDIRYQRLVVELLIKNEDILF
partner: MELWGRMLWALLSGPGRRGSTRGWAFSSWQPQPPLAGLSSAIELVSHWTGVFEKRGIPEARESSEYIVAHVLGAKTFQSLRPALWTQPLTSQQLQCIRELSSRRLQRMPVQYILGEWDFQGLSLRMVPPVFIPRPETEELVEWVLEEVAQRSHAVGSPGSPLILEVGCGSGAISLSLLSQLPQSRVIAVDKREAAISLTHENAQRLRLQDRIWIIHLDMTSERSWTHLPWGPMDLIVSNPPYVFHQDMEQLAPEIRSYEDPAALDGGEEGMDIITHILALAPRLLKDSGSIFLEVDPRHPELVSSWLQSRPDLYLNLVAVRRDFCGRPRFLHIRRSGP
B7: Cysteine-rich C-terminal protein 1 (Homo sapiens), Q9UGL9 (parent)
chain: MSSQQSAVSAKGFSKGSSQGPAPCPAPAPTPAPASSSSCCGSGRGCCGDSGCCGSSSTSCCCFPRRRRRQRSSGCCCCGGGSQRSQRSNNRSSGCCSGC
partner: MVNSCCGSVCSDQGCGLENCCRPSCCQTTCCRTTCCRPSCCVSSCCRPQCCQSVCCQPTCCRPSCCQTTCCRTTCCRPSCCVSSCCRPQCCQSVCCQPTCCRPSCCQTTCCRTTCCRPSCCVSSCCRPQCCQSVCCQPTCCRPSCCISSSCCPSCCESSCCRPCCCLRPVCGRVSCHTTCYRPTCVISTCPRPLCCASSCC
B8: Zinc finger protein 774 (Homo sapiens), Q6NX45 (parent)
chain: MWLGTSGKSGLPGHCLENPLQECHPAQLEEWALKGISRPSVISQPEQKEEPWVLPLQNFEARKIPRESHTDCEHQVAKLNQDNSETAEQCGTSSERTNKDLSHTLSWGGNWEQGLELEGQHGTLPGEGQLESFSQERDLNKLLDGYVGEKPMCAECGKSFNQSSYLIRHLRTHTGERPYTCIECGKGFKQSSDLVTHRRTHTGEKPYQCKGCEKKFSDSSTLIKHQRTHTGERPYECPECGKTFGRKPHLIMHQRTHTGEKPYACLECHKSFSRSSNFITHQRTHTGVKPYRCNDCGESFSQSSDLIKHQRTHTGERPFKCPECGKGFRDSSHFVAHMSTHSGERPFSCPDCHKSFSQSSHLVTHQRTHTGERPFKCENCGKGFADSSALIKHQRIHTGERPYKCGECGKSFNQSSHFITHQRIHLGDRPYRCPECGKTFNQRSHFLTHQRTHTGEKPFHCSKCNKSFRQKAHLLCHQNTHLI
partner: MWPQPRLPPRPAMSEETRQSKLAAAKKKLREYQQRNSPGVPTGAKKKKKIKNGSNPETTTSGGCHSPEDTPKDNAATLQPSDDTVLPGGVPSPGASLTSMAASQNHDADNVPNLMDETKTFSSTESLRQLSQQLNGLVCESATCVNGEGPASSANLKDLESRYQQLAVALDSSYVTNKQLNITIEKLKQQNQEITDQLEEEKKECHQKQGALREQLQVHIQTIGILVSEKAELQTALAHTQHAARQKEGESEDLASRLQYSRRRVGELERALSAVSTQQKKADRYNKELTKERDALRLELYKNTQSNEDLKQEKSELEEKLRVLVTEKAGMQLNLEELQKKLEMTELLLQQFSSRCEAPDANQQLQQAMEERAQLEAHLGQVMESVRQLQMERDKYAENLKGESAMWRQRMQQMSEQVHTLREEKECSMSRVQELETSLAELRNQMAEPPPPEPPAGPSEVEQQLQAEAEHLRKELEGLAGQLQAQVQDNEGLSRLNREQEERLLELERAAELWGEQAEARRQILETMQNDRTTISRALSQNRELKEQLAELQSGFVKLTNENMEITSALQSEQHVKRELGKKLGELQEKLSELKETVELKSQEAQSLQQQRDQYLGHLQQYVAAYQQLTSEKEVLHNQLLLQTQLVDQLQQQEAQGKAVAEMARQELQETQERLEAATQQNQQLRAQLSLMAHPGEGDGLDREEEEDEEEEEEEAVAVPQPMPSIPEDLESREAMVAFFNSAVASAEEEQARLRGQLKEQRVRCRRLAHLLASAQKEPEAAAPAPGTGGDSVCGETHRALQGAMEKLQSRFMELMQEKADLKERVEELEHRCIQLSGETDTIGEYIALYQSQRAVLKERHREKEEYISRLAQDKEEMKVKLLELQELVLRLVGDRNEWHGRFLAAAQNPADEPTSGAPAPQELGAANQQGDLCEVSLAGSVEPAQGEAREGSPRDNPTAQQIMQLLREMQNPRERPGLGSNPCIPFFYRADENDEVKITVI

Variants of B1 are the subject of the first assay. The settings on record: with gors2_human GORASP2, Q9H8Y8.
In the case of I288T, the “effect of a mutation on the interaction” value is “with no effect”.

In the next assay the parent is B1. The conditions noted are these: with sdcb1_human SDCBP.
On to I288T, for which the “effect of a mutation on the interaction” value is recorded as “disrupting interaction strength”.

The variants in a further assay derive from B1. The settings on record: with psa3_human PSMA3, P25788.
Sequence of psa3_human PSMA3, P25788 (P25788 whole entry): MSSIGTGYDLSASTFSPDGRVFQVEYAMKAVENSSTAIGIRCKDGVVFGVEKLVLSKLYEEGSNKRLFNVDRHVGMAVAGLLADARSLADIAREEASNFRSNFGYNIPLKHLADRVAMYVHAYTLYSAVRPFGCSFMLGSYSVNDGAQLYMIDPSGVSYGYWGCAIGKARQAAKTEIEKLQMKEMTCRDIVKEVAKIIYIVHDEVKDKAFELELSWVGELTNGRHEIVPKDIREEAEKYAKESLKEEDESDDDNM
Consider I288T, for which the “effect of a mutation on the interaction” value is on record as “disrupting interaction strength”.

In another assay the parent is B2. The conditions noted are these: with nup62_human NUP62, P37198.
Sequence of nup62_human NUP62, P37198 (P37198 whole entry): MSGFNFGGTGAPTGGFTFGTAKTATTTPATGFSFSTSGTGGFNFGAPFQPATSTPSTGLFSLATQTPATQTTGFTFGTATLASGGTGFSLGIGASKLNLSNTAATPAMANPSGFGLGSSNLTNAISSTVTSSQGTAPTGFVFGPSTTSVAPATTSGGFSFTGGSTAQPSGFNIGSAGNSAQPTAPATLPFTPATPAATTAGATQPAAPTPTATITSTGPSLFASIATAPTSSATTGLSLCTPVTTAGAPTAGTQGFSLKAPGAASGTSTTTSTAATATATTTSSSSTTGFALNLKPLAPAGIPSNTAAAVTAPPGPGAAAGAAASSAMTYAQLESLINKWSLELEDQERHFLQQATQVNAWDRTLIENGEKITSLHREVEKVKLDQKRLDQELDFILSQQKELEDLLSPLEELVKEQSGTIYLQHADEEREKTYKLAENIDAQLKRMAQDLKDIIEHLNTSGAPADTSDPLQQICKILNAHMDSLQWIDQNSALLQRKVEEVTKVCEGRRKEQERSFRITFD
For A34T, the “effect of a mutation on the interaction” value is reported as “with no effect”.

In the next assay the parent is B2. The conditions noted are these: with traf1_human TRAF1, Q13077.
Sequence of traf1_human TRAF1, Q13077 (Q13077 whole entry): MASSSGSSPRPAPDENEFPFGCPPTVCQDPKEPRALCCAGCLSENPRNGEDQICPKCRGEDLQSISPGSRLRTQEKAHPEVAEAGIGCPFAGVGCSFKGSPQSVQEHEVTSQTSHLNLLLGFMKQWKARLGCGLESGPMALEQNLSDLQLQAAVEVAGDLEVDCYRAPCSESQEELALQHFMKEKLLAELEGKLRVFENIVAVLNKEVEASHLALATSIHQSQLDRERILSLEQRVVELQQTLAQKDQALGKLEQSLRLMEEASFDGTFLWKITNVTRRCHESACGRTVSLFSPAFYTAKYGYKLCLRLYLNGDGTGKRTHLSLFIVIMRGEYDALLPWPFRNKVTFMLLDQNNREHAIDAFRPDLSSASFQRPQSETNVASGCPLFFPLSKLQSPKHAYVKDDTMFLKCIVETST
With A34T, the “effect of a mutation on the interaction” value is “with no effect”.

In a further assay the parent is B3. The settings on record: with chm1b_human CHMP1B.
Regarding Q155H, the “effect of a mutation on the interaction” value is recorded as “with no effect”.

Consider R255H, for which the “effect of a mutation on the interaction” value is reported as “with no effect”.

The variants in a further assay derive from B4. The conditions noted are these: with tfp11_human TFIP11, Q9UBB9.
Sequence of tfp11_human TFIP11, Q9UBB9 (Q9UBB9 whole entry): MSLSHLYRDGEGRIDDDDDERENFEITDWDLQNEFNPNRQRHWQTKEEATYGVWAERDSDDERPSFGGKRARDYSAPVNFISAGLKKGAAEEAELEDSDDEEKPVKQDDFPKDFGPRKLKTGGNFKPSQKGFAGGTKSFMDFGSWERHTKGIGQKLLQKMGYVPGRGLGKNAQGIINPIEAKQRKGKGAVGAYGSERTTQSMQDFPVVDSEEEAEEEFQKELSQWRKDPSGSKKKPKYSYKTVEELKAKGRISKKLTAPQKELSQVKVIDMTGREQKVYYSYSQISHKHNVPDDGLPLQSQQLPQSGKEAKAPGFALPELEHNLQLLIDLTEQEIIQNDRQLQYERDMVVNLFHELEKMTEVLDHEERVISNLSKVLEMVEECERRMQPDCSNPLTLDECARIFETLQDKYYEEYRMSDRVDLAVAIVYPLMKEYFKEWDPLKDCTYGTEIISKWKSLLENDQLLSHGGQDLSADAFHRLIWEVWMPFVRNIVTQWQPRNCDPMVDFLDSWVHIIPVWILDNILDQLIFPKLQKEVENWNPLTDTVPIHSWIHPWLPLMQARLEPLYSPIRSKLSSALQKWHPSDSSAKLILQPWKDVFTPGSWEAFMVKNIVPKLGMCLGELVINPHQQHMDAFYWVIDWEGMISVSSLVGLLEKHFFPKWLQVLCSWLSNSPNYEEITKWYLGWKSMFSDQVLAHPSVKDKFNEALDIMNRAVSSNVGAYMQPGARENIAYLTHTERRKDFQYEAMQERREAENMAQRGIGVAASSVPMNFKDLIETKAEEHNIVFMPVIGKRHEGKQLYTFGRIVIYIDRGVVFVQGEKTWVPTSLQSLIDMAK
Consider S61R, for which the “effect of a mutation on the interaction” value is “with no effect”.

The variants in a further assay derive from B4. The conditions noted are these: with cep70_human CEP70, Q8NHQ1.
Sequence of cep70_human CEP70, Q8NHQ1 (Q8NHQ1 whole entry): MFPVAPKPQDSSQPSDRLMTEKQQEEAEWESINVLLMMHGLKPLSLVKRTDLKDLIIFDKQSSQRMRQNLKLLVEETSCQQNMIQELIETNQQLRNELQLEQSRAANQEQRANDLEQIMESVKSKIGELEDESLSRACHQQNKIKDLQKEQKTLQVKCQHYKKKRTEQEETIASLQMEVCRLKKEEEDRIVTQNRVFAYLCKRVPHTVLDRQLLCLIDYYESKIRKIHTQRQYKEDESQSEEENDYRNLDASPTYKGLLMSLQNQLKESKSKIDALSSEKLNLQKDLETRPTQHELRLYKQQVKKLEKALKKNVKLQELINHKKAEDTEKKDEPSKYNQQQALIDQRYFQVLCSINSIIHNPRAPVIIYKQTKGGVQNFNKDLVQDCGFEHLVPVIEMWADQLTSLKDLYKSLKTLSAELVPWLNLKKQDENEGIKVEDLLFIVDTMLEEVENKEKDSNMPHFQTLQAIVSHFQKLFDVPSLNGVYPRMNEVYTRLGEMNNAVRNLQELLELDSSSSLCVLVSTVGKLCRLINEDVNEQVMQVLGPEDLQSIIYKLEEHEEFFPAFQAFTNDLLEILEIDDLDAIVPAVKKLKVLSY
In the case of S61R, the “effect of a mutation on the interaction” value is given as “with no effect”.

In a further assay the parent is B4. The conditions noted are these: with ldoc1_human LDOC1, O95751.
Sequence of ldoc1_human LDOC1, O95751 (O95751 whole entry): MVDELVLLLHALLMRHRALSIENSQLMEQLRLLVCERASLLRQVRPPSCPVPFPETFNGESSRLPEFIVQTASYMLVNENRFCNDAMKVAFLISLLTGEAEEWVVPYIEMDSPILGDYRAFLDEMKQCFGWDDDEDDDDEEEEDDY
S61R: the “effect of a mutation on the interaction” value is “with no effect”.

The next assay covers variants of B5. The settings on record: with t2ag_human GTF2A2, P52657.
In the case of P208S, the “effect of a mutation on the interaction” value is recorded as “with no effect”.

The next assay covers variants of B6. The settings on record: with hemk1_human HEMK1, Q9Y5R4.
For the variant D115N, the “effect of a mutation on the interaction” value is recorded as “disrupting interaction strength”.

The variants in another assay derive from B7. The conditions noted are these: with kr412_human KRTAP4-12, Q9BQ66.
G20S: the “effect of a mutation on the interaction” value is reported as “with no effect”.

A further assay covers variants of B8. The settings on record: with goga2_human GOLGA2, Q08379.
P65L: the “effect of a mutation on the interaction” value was “with no effect”.
